Drawing on PMC10362042, this text covers Kd for 3 substances.

Values joined by “and” are separate entries in the source; they are usually repeats but may differ in a detail not shown here. Equal entries are not always repeated. Where two headings read alike, the source gives them in different places.

Targets include Dog ACE2 (dog); Goat ACE2 (goat); Rabbit ACE2 (rabbit); Sheep ACE2 (sheep).
What all share (assay): SPR
On the technique in general: Surface plasmon resonance follows binding to a sensor surface in real time, without labels.

Test [1] has as its target Pig ACE2 (pig).
The target in test [2] is Pig ACE2 (pig). This is another data set of the same source.

As usually defined, the Kd is the equilibrium constant for the complex coming apart. For “SARS-CoV-2 Omicron BA.4/5 RBD (residues 319-541) (from UniProt P0DTC2 319-541) (domain or fragment)”, the Kd was 211 nM and 146 nM and 186 nM with Dog ACE2 (dog); 29.1 nM and 26.2 nM and 25.3 nM with Goat ACE2 (goat); 6.1 nM and 7.2 nM and 8 nM with Pig ACE2 (pig) [1].
For the substance “SARS-CoV-2 Omicron BA.1 RBD (residues 319-541) (from UniProt P0DTC2 319-541) (domain or fragment)”, the Kd is 60 nM and 43.7 nM with Rabbit ACE2 (rabbit); 174 nM and 180 nM (2×) and 188 nM with Goat ACE2 (goat); 62 nM and 66.8 nM and 71.5 nM with Sheep ACE2 (sheep).
“SARS-CoV-2 Omicron BA.2 RBD (residues 319-541) (from UniProt P0DTC2 319-541) (domain or fragment)”: the Kd in the test with Pig ACE2 (pig) [2] was 719 nM and 678 nM; in the test with Rabbit ACE2 (rabbit), 76.3 nM and 53.8 nM and 59.3 nM; with Goat ACE2 (goat) it was 111 nM and 102 nM and 106 nM (2×); with Pig ACE2 (pig) [1], 654 nM and 662 nM.
